In patent publication US20160002357A1 (Pfizer, published 2016):

B1: anti-P-cadherin scFv 153 alanine-mutant H2.5-Ala (scFv, V domains shown)
VH: EVQLVQSGAEVKKPGASVKVSCKASGYTFTSYGISWVRQAPGQGLEWMGWISAANGNTNYAQKLQGRVTMTTDTSTSTAYMELRSLRSDDTAVYYCATIDTANAFGIWGQGTMVTVSS
VL: QSVLTQPPSVSAAPGQKVTISCSGSSSNIGNNYVSWYQQLPGTAPKLLIYDNNKRPSGIPDRFSGSKSGTSATLGITGLQTGDEADYYCGTWDSSLSGVVFGGGTKLTVL
notes: scFv on phage
B2: anti-P-cadherin scFv 153 alanine-mutant H2.14-Ala (scFv, V domains shown)
VH: EVQLVQSGAEVKKPGASVKVSCKASGYTFTSYGISWVRQAPGQGLEWMGWISAYNGNTNYAQALQGRVTMTTDTSTSTAYMELRSLRSDDTAVYYCATIDTANAFGIWGQGTMVTVSS
VL: QSVLTQPPSVSAAPGQKVTISCSGSSSNIGNNYVSWYQQLPGTAPKLLIYDNNKRPSGIPDRFSGSKSGTSATLGITGLQTGDEADYYCGTWDSSLSGVVFGGGTKLTVL
notes: scFv on phage
B3: anti-P-cadherin scFv 153 alanine-mutant H2.11-Ala (scFv, V domains shown)
VH: EVQLVQSGAEVKKPGASVKVSCKASGYTFTSYGISWVRQAPGQGLEWMGWISAYNGNTNAAQKLQGRVTMTTDTSTSTAYMELRSLRSDDTAVYYCATIDTANAFGIWGQGTMVTVSS
VL: QSVLTQPPSVSAAPGQKVTISCSGSSSNIGNNYVSWYQQLPGTAPKLLIYDNNKRPSGIPDRFSGSKSGTSATLGITGLQTGDEADYYCGTWDSSLSGVVFGGGTKLTVL
notes: scFv on phage
B4: anti-P-cadherin scFv 153 alanine-mutant H2.8-Ala (scFv, V domains shown)
VH: EVQLVQSGAEVKKPGASVKVSCKASGYTFTSYGISWVRQAPGQGLEWMGWISAYNGATNYAQKLQGRVTMTTDTSTSTAYMELRSLRSDDTAVYYCATIDTANAFGIWGQGTMVTVSS
VL: QSVLTQPPSVSAAPGQKVTISCSGSSSNIGNNYVSWYQQLPGTAPKLLIYDNNKRPSGIPDRFSGSKSGTSATLGITGLQTGDEADYYCGTWDSSLSGVVFGGGTKLTVL
notes: scFv on phage
B5: anti-P-cadherin scFv 153 alanine-mutant H2.6-Ala (scFv, V domains shown)
VH: EVQLVQSGAEVKKPGASVKVSCKASGYTFTSYGISWVRQAPGQGLEWMGWISAYAGNTNYAQKLQGRVTMTTDTSTSTAYMELRSLRSDDTAVYYCATIDTANAFGIWGQGTMVTVSS
VL: QSVLTQPPSVSAAPGQKVTISCSGSSSNIGNNYVSWYQQLPGTAPKLLIYDNNKRPSGIPDRFSGSKSGTSATLGITGLQTGDEADYYCGTWDSSLSGVVFGGGTKLTVL
notes: scFv on phage
B6: anti-P-cadherin scFv 153 alanine-mutant H2.13-Ala (scFv, V domains shown)
VH: EVQLVQSGAEVKKPGASVKVSCKASGYTFTSYGISWVRQAPGQGLEWMGWISAYNGNTNYAAKLQGRVTMTTDTSTSTAYMELRSLRSDDTAVYYCATIDTANAFGIWGQGTMVTVSS
VL: QSVLTQPPSVSAAPGQKVTISCSGSSSNIGNNYVSWYQQLPGTAPKLLIYDNNKRPSGIPDRFSGSKSGTSATLGITGLQTGDEADYYCGTWDSSLSGVVFGGGTKLTVL
notes: scFv on phage
B7: anti-P-cadherin scFv 153 alanine-mutant H3.2-Ala (scFv, V domains shown)
VH: EVQLVQSGAEVKKPGASVKVSCKASGYTFTSYGISWVRQAPGQGLEWMGWISAYNGNTNYAQKLQGRVTMTTDTSTSTAYMELRSLRSDDTAVYYCATIATANAFGIWGQGTMVTVSS
VL: QSVLTQPPSVSAAPGQKVTISCSGSSSNIGNNYVSWYQQLPGTAPKLLIYDNNKRPSGIPDRFSGSKSGTSATLGITGLQTGDEADYYCGTWDSSLSGVVFGGGTKLTVL
notes: scFv on phage
B8: anti-P-cadherin scFv 153 alanine-mutant H2.7-Ala (scFv, V domains shown)
VH: EVQLVQSGAEVKKPGASVKVSCKASGYTFTSYGISWVRQAPGQGLEWMGWISAYNANTNYAQKLQGRVTMTTDTSTSTAYMELRSLRSDDTAVYYCATIDTANAFGIWGQGTMVTVSS
VL: QSVLTQPPSVSAAPGQKVTISCSGSSSNIGNNYVSWYQQLPGTAPKLLIYDNNKRPSGIPDRFSGSKSGTSATLGITGLQTGDEADYYCGTWDSSLSGVVFGGGTKLTVL
notes: scFv on phage
B9: anti-P-cadherin scFv 153 alanine-mutant H2.16-Ala (scFv, V domains shown)
VH: EVQLVQSGAEVKKPGASVKVSCKASGYTFTSYGISWVRQAPGQGLEWMGWISAYNGNTNYAQKLAGRVTMTTDTSTSTAYMELRSLRSDDTAVYYCATIDTANAFGIWGQGTMVTVSS
VL: QSVLTQPPSVSAAPGQKVTISCSGSSSNIGNNYVSWYQQLPGTAPKLLIYDNNKRPSGIPDRFSGSKSGTSATLGITGLQTGDEADYYCGTWDSSLSGVVFGGGTKLTVL
notes: scFv on phage
B10: anti-P-cadherin scFv 153 alanine-mutant H3.3-Ala (scFv, V domains shown)
VH: EVQLVQSGAEVKKPGASVKVSCKASGYTFTSYGISWVRQAPGQGLEWMGWISAYNGNTNYAQKLQGRVTMTTDTSTSTAYMELRSLRSDDTAVYYCATIDAANAFGIWGQGTMVTVSS
VL: QSVLTQPPSVSAAPGQKVTISCSGSSSNIGNNYVSWYQQLPGTAPKLLIYDNNKRPSGIPDRFSGSKSGTSATLGITGLQTGDEADYYCGTWDSSLSGVVFGGGTKLTVL
notes: scFv on phage
B11: anti-P-cadherin scFv 153 alanine-mutant H2.15-Ala (scFv, V domains shown)
VH: EVQLVQSGAEVKKPGASVKVSCKASGYTFTSYGISWVRQAPGQGLEWMGWISAYNGNTNYAQKAQGRVTMTTDTSTSTAYMELRSLRSDDTAVYYCATIDTANAFGIWGQGTMVTVSS
VL: QSVLTQPPSVSAAPGQKVTISCSGSSSNIGNNYVSWYQQLPGTAPKLLIYDNNKRPSGIPDRFSGSKSGTSATLGITGLQTGDEADYYCGTWDSSLSGVVFGGGTKLTVL
notes: scFv on phage
B12: anti-P-cadherin scFv 153 alanine-mutant H2.9-Ala (scFv, V domains shown)
VH: EVQLVQSGAEVKKPGASVKVSCKASGYTFTSYGISWVRQAPGQGLEWMGWISAYNGNANYAQKLQGRVTMTTDTSTSTAYMELRSLRSDDTAVYYCATIDTANAFGIWGQGTMVTVSS
VL: QSVLTQPPSVSAAPGQKVTISCSGSSSNIGNNYVSWYQQLPGTAPKLLIYDNNKRPSGIPDRFSGSKSGTSATLGITGLQTGDEADYYCGTWDSSLSGVVFGGGTKLTVL
notes: scFv on phage
B13: anti-P-cadherin scFv 153 alanine-mutant H2.10-Ala (scFv, V domains shown)
VH: EVQLVQSGAEVKKPGASVKVSCKASGYTFTSYGISWVRQAPGQGLEWMGWISAYNGNTAYAQKLQGRVTMTTDTSTSTAYMELRSLRSDDTAVYYCATIDTANAFGIWGQGTMVTVSS
VL: QSVLTQPPSVSAAPGQKVTISCSGSSSNIGNNYVSWYQQLPGTAPKLLIYDNNKRPSGIPDRFSGSKSGTSATLGITGLQTGDEADYYCGTWDSSLSGVVFGGGTKLTVL
notes: scFv on phage
B14: anti-P-cadherin scFv 153 alanine-mutant H3.7-Ala (scFv, V domains shown)
VH: EVQLVQSGAEVKKPGASVKVSCKASGYTFTSYGISWVRQAPGQGLEWMGWISAYNGNTNYAQKLQGRVTMTTDTSTSTAYMELRSLRSDDTAVYYCATIDTANAAGIWGQGTMVTVSS
VL: QSVLTQPPSVSAAPGQKVTISCSGSSSNIGNNYVSWYQQLPGTAPKLLIYDNNKRPSGIPDRFSGSKSGTSATLGITGLQTGDEADYYCGTWDSSLSGVVFGGGTKLTVL
notes: scFv on phage
B15: anti-P-cadherin scFv 153 alanine-mutant H3.1-Ala (scFv, V domains shown)
VH: EVQLVQSGAEVKKPGASVKVSCKASGYTFTSYGISWVRQAPGQGLEWMGWISAYNGNTNYAQKLQGRVTMTTDTSTSTAYMELRSLRSDDTAVYYCATADTANAFGIWGQGTMVTVSS
VL: QSVLTQPPSVSAAPGQKVTISCSGSSSNIGNNYVSWYQQLPGTAPKLLIYDNNKRPSGIPDRFSGSKSGTSATLGITGLQTGDEADYYCGTWDSSLSGVVFGGGTKLTVL
notes: scFv on phage
B16: anti-P-cadherin scFv 153 alanine-mutant H3.5-Ala (scFv, V domains shown)
VH: EVQLVQSGAEVKKPGASVKVSCKASGYTFTSYGISWVRQAPGQGLEWMGWISAYNGNTNYAQKLQGRVTMTTDTSTSTAYMELRSLRSDDTAVYYCATIDTAAAFGIWGQGTMVTVSS
VL: QSVLTQPPSVSAAPGQKVTISCSGSSSNIGNNYVSWYQQLPGTAPKLLIYDNNKRPSGIPDRFSGSKSGTSATLGITGLQTGDEADYYCGTWDSSLSGVVFGGGTKLTVL
notes: scFv on phage
B17: anti-P-cadherin scFv 153 alanine-mutant H2.17-Ala (scFv, V domains shown)
VH: EVQLVQSGAEVKKPGASVKVSCKASGYTFTSYGISWVRQAPGQGLEWMGWISAYNGNTNYAQKLQARVTMTTDTSTSTAYMELRSLRSDDTAVYYCATIDTANAFGIWGQGTMVTVSS
VL: QSVLTQPPSVSAAPGQKVTISCSGSSSNIGNNYVSWYQQLPGTAPKLLIYDNNKRPSGIPDRFSGSKSGTSATLGITGLQTGDEADYYCGTWDSSLSGVVFGGGTKLTVL
notes: scFv on phage

Target: T1, P-cadherin-ECD1-3-Fc protein (human P-cadherin-Fc) (human, UniProt P22223 108-440)
T1 construct: Construct was expressed with signal peptide and pro-peptide (PACE co-transfected to process the propeptide); not shown: hinge and CH2 and CH3 domains of human IgG1
T1 sequence (P22223 108-440): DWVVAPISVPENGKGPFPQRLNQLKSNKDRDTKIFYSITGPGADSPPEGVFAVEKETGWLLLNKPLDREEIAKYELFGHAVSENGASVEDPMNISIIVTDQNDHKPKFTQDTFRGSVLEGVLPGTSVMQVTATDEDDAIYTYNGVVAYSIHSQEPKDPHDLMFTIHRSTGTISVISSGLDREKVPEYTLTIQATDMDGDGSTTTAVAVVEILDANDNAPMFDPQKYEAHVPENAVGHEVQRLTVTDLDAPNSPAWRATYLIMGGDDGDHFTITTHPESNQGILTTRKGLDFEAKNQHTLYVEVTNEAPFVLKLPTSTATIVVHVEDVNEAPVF
Assay: phage scFv ELISA, coated P-cadherin-ECD1-3-Fc
Protocol: P-cadherin-ECD1-3-Fc protein or negative control protein was coated overnight at 4° C. on 96-well Nunc Maxisorp® plates (Thermo Fisher Scientific, Madison, Conn.) at a concentration of 2 μg/mL in PBS+Ca²⁺ and Mg²⁺. Plates were washed three times using PBS+Ca²⁺ and Mg²⁺ and blocked for 1 hour at room temperature in 3% milk/PBS+Ca²⁺ and Mg²⁺. Phage samples prepared as described above were added to the blocked plates for 1 hour at room temperature. Plates were washed three times with PBS+Ca²⁺ and Mg²⁺ prior to the addition of secondary antibody (anti M13-HRP 1:2000, GE Healthcare, Piscataway, N.J.). Plates were incubated for a further 1 hour at room temperature and washed six times with PBS+Ca²⁺ and Mg²⁺. Signal was developed using TMB (SurModics, Eden Prairie, Minn.), the reaction stopped with H₂SO₄ and the absorbance read at 450 nm on an EnVision® plate reader (Perkin Elmer, Waltham, Mass.).

Row | Binder | % of binding of Clone #153 to human P-cadherin-Fc | Human P-cadherin-Fc binding (OD450) | Z Score
1 | B1 | 34% | 0.45 OD450 | -1.4
2 | B2 | 117% | 1.54 OD450 | 0.4
3 | B3 | 163% | 2.15 OD450 | 1.3
4 | B4 | 162% | 2.14 OD450 | 1.3
5 | B5 | 80% | 1.06 OD450 | -0.4
6 | B6 | 152% | 2.01 OD450 | 1.1
7 | B7 | 168% | 2.22 OD450 | 1.4
8 | B8 | 114% | 1.5 OD450 | 0.3
9 | B9 | 68% | 0.9 OD450 | -0.7
10 | B10 | 171% | 2.26 OD450 | 1.5
11 | B11 | 101% | 1.34 OD450 | 0
12 | B12 | 154% | 2.03 OD450 | 1.1
13 | B13 | 172% | 2.27 OD450 | 1.5
14 | B14 | 23% | 0.31 OD450 | -1.6
15 | B15 | 13% | 0.17 OD450 | -1.8
16 | B16 | 58% | 0.77 OD450 | -0.9
17 | B17 | 162% | 2.14 OD450 | 1.3
